Source: patent publication US20100047928A1 (CANON, published 2010)

Target: T1, Soluble hen egg-white lysozyme proteins (HEL; Seikagaku Corp. code No. 100940) (hen, UniProt P00698 19-147)
T1 construct: Bought protein, soluble; also called HEL proteins; target substances
Assay: sandwich on gold/glass slide: immobilised fusion, 500 nM HEL, FITC-labelled anti-HEL polyclonal antibodies, fluorescence microscopy
Description: 200 μl of 500 nM HEL proteins is added dropwise as target substances to the neighborhood of the boundary region between the gold layer and the glass layer of the slide glass completely washed in the step (ii). The slide glass is covered with a cover glass. After reaction at room temperature for 30 minutes, the slide glass is washed with each buffer. Next, 1 ml of 100 nM FITC-labeled HEL polyclonal antibodies was spotted thereonto and incubated in a moisture chamber. Then, the slide glass is washed with each buffer. FITC fluorescence at 520 nm is observed with a fluorescence microscope.

T1 sequence (P00698 19-147): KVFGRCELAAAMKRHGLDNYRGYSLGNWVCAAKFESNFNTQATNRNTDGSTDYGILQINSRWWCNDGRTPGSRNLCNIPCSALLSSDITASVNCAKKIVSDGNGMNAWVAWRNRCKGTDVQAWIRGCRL

B1: fusion protein of HEL-binding scFv (HyHEL10), Au-binding peptide region and SiO2-binding peptide region (scFv)
scFv: DIVLTQSPATLSVTPGNSVSLSCRASQSIGNNLHWYQQKSHESPRLLIKYASQSISGIPSRFSGSGSGTDFTLSINSVETEDFGMYFCQQSNSWPYTFGGGTKLEITAGGGGSGGGGSGGGGSDIQLQESGPSLVKPSQTLSLTCSVTGDSITSDYWSWIRKFPGNRLEYMGYVSYSGSTYYNPSLKSRISITRDTSKNQYYLDLNSVTTEDTATYYCANWDGDYWGQGTLVTVSAAGGGGSGGGGSGGGGSMHGKTQATSGTIQSMHGKTQATSGTIQSMHGKTQATSGTIQSMHSASGSGGGGSGGGSGGGSEGGGSEGGGSGGGSGSIPMHVHHKHPHVIPMHVHHKHPHV
notes: Secreted from E. coli by the pelB signal of pET-20b(+); In the assays it stood immobilised on a gold/glass substrate; also called target substance capturing body; sc-Fv-HyHEL10 fusion; not shown: His tag used for metal chelate purification (pET-20b(+) vector)
- binding result: binds
